Experimental data: the PETadex activity labels (doi:10.1093/ismejo/wraf068)

Experiments:
BHET = assay: Proxy for plastic degradation [HPLC-UV] (mmol); conditions: pH 8
PET = assay: Proxy for plastic degradation [HPLC-UV] (mmol)

B1: unnamed (protein)
chain: CGGGRVTPPDSPGEQMQAELAETLPEGGGREGRESDVAEVDREGESLDQGMDAEQTLPDAIGLTEEVGESGALYEAEGEAETIDGCDLADQGGEIEAWETLPPADVQQDEQLAAGTGDPFEWGPYEIGKKDYDFYDIQRMRLVPTTVWYPALPSGQSKAKYLLVVQGKAYVEPPAEPSGAPYPLVLFSHGYGGTRFQSVSYTEYLASHGYVVAAMDHIGNTFLDFFSDDAKVAQIALERPKDVRFVYQELVKLSNSGDGVMGGMVDQDRVAVTGHSFGGYTALVVAGAEIDVSEAIAACQSGAVSDIFCAYVEYWPAGEVIKLDPPIPGVQAAIYLAPGGYSAFGDQGLAAVKVPSMIFGGTLDDTCSVAVEIEPIYQALPPPKIEVLIQNGGHMSFTNLCDLPFAQFYLDKYCDVEGMIPAQQAFAVTNGLSVAFLDLYLKGVDAAAQYLTQEAVDEEFGYVELKAE
- Proxy for plastic degradation (BHET): 0.05
- Proxy for plastic degradation (PET; pH 8, 30 °C): 0
- Proxy for plastic degradation (PET; pH 8, 60 °C): 0

B2: unnamed (protein)
chain: QSYEMGHRSEIYIDPSRGDRAIPTEIYYPSLTAGDDVPVADPPTGGFPVVAFAHGRMMPWDDYENIWGALAPQGFVVACPTTETGFMPNRTNFSLDLIYVISRIRLENSSATSPFYGKIGNASAVIGHSFGGVATFMAAIESDSITAIVTFASGQIDSVELAGISEPALIFAGTDDSLTPAATFQIPYYNNLGSSCKTLVNIIGGTHCHFAESSYYCDIGEAGFPPPGITRERQHELTNQFLIPWLDFMLNTDPVASDSFQTLLTTSGDILYLQDCDIMGVSRDDPTDLPGIIDLLAYPNPFNSAVRIGVERGEWRVENREIFDITGRMVAEIPAQSVIPDPDRESRGVVEGLDSRFHG
- Proxy for plastic degradation (BHET): 0
- Proxy for plastic degradation (PET; pH 8, 30 °C): 0
- Proxy for plastic degradation (PET; pH 8, 60 °C): 0

B3: unnamed (protein)
chain: CGKDGGIMTQDVEFTSDDGVLLKGTLYLPAGISEKLPGVTLAHMNMNDRTSWAYYAEKLALEGYVVLAFDLRGWGESGGESDFHEMYRDVMAAVTYLANFGKVDRNRIASAGASMGGMASVIAASRTSSIKAVATVSSPPAWSESEPVKVIGKLPPRPVLVIAGSSDPHLDLRAARMLFLAAKEPRQWLEIKTNKHGTDIFATPQGVELERALAMFFAENLKDSGRSSTTEKDGK
- Proxy for plastic degradation (BHET): 0
- Proxy for plastic degradation (PET; pH 8, 30 °C): 0
- Proxy for plastic degradation (PET; pH 8, 60 °C): 0

B4: unnamed (protein)
chain: CTDNADTDGADGAEGSATEEGGTEESGKESGEESKADLAALAAEVEEPGPWAVGTTTVETTGARDRQLPVQVWYPVDTAVAATAEPATYDFPGIEVPAGAVTGASPAPGPFPLVIYSHGNGGLRYVSSFLAEHMASHGFVVMAPDHVGNTALDTFLGSRDETDQVAEDRPVDVQAVIDAATSGQAGLEEVSPVVDGEEVAVIGHSFGGYTALALASRQAEGDDSLDAIVGLAPASSGVDDTTLEAVGVPTLLISGTLDETTPIEEDTLRPAELVSGRPLVRADIDGAGHQSFTDVCDYLGIAESQPDLPAALVEAPQEYALEGCAPELIVIDEAQRITNRLVTAFLLETLYADDSWSPLLSPGAEEGQPLALLERED
- Proxy for plastic degradation (BHET): 0
- Proxy for plastic degradation (PET; pH 8, 30 °C): 0
- Proxy for plastic degradation (PET; pH 8, 60 °C): 0

B5: unnamed (protein)
chain: MSRAFSFASVAALLVFFAASIWLARLDKGGPPHTELMLEGEVPATLYLPGDGEHREAFLDAPPRDERPPAVVMMHGFSGDRLSMSGISRRLAESGYAVLNIDARGHGQNRNPFSSSWAAPDLFYPDLLAAVEFLRAYPFVDGSRIAVMGHSMGAGASLDYASRDSAIGAAVLVSGGWRIQGPHRPPNTLFLYATGDPERIRGRSRQLAAGLAGVNDPEVGRTYGDPTRGDAVRLAEVAGADHQTIVWREAAVRETVAWLDATFGVARSPGPVPDDPRAPLLPLIWAAFLLVMVGLGQVVGRLVPAQPYRPGGGRIAGLAAIAAAFALTMPLLALGTPGFILSMEVGDVFVSHFALAGIVLLVAIRMREPELIDSLFAPRLLPTLIGAAVGTIGVFTLMRVFEPVMHRLTLTPERFLVFVMAALGLLPLALAFNLLLRRGTTAGATLTSLAGRVLVLLVLFAGVQVGILSMVMLFMLPALGFVCLQFEVLAAAIYASSRNLLALSLIDAAWLAMVIAAIMPIRI
- Proxy for plastic degradation (BHET): 0
- Proxy for plastic degradation (PET; pH 8, 30 °C): 0
- Proxy for plastic degradation (PET; pH 8, 60 °C): 0

B6: unnamed (protein)
chain: CGSDDDSAPGSPAGNEPFYAPDELGPFAVGRSTFTIVDADRGDRELPVDVWYPVDPEEATGAPSLYQVSILVWIFPLVFTTPSEVALDSPPVSEARRFPLIVFSHGSGGLRYQSFFLTEILASHGFVVVAPSHVGNTLLDEINGTFAPLTDMMVARPLDVSYLITRMLEKNEDAADPLYGTIDADRIGVCGHSFGGFTSLAMAAGFGADPPPDLDPEIPEDLEPVPPDPRVDAIVPIAPASSWFGDSELAGIDVPTLIIGGTLDTTTPIATENVRPYEMIPAPVFRADLDGAVHFSFSNSCDLIQGMREKGIPQALIDALLGAEFTAPCNPPSLDVEEAHRITNLYTVSLFETFLEDDSRYEKYLTEAYAEASEPNVTFYANPD
- Proxy for plastic degradation (BHET): 0
- Proxy for plastic degradation (PET; pH 8, 30 °C): 0
- Proxy for plastic degradation (PET; pH 8, 60 °C): 0

B7: unnamed (protein)
chain: SRTRQILTEIYYPADTAGEEVPVAEPGAEGFPAVSFAHGRRMAWSAYSNFWEMLAPQGYIIVFPCTEMGLSPNHLDFALDCLFDAHKLQELNDLGTSIFYQKVGDTFAVTGHSMGGVVSFIAAIEDPTVTAIANFACGQASSYDLASVTAPALIFAGSDDYMTPVDQYQLLFYNELSSTCKALLILQGANHCQYAQYTSVCDDIEDQYPDPALTRTQQHAVTSTLLIPWLDYMLKGDEEAWTEFNVLAGDGDVTETHMICDLPFNTPTPASPPTPFVPATSSGGIGTLIVVISGTLALLSSRRK
- Proxy for plastic degradation (BHET): 0
- Proxy for plastic degradation (PET; pH 8, 30 °C): 0
- Proxy for plastic degradation (PET; pH 8, 60 °C): 0

B8: unnamed (protein)
chain: MTKVNFQNKEEKRIVGILSIPKGKGPYPAVIFCHGLGSSKESPLIKTVSKKVRQVGFATFTFDCLGSRESDPYHSTAGITKRLSDLDAAIDFLAKHPRVDAERMGLYGHSLGGSVALVQASRDKRIKTAVLISPVIDFRRTGLRPINKKHMDEWDKREEILTINRKNKIVFRIPWDFFVDITSYDFVDIARKVACPVMIIHGTQDSLVPIQQSQILCQNLKNSELISLPWQKHFTRTTRKRKEAIVNSIFWFNKYLKKSATPSN
- Proxy for plastic degradation (BHET): 0.1
- Proxy for plastic degradation (PET; pH 8, 30 °C): 0
- Proxy for plastic degradation (PET; pH 8, 60 °C): 0

B9: unnamed (protein)
chain: QSYQIGHTSIIYYDANRSNREIPTEIYYPAENEGDNVPVADPYSDGFPVISFGHGRMTTWSAYENIWSVLVQEGYIVAFACTEMSFIPNHTEFGLDIAFLVNRIQAEGIDSTSLFHGKIGTTSAVMGHSMGGATCFLSAQGNETITAITSFVSGNTSPSPIDAAVDITIPALLFSGSDDYMTPAEEYQIPIYEALNSDCKTLISITGGNHCQFAEYDYYCDTMEDNYPEPALTREEQHEVTNRFFISWVNFNLKGDFGAWYEFEDSLMTSEAITYMHDCDVTSVLEEPSETNIFMEYGLSNHPNPFNLTTTIKYELPKSAHISLKIYNISSKLIKTLVDEKENTGYNSVIWDGKDENGNPVPSGIYLYNIEIDGRVFSETKRMILLK
- Proxy for plastic degradation (PET; pH 8, 30 °C): 0
- Proxy for plastic degradation (PET; pH 8, 60 °C): 0

B10: unnamed (protein)
chain: WGAQNHFYETVLVDTDENPRETHLVGQIDGVFTDENYGEYEVTIYYPAINSGVSQPPDKSGAPYPAIIFAHGWLTSKELYTWIGNYCAAQGYVTLLFSVPDPTSLEAFRQSVTGITKSIDYLLVQNQGGLLSGLINTSRIGVMGHSMGAMAVLIATTEDSRIKAAVSLAPGYFGSTTKKYVEACKSIRVPIQFQAGSLDKICPPSAVETYYNAVRIPPKEIIVINGADHIQFSDAPATLWANITLEEQHETSRKYFIAWFNYYLRDDFNYYAYLFGSEARKDMENGILSSLEYVERFDC
- Proxy for plastic degradation (BHET): 0
- Proxy for plastic degradation (PET; pH 6): 0.11
- Proxy for plastic degradation (PET; pH 6.5): 0.96
- Proxy for plastic degradation (PET; pH 7): 0.47
- Proxy for plastic degradation (PET; pH 7.5): 0.4
- Proxy for plastic degradation (PET; pH 8, 30 °C): 0
- Proxy for plastic degradation (PET; pH 8, 40 °C): 0.39
- Proxy for plastic degradation (PET; pH 8, 50 °C): 2.78
- Proxy for plastic degradation (PET; pH 8, 70 °C): 0.05
- Proxy for plastic degradation (PET; pH 8, 80 °C): 0.04

B11: unnamed (protein)
chain: QVYEIGHTTITFNDPSRSRDIETEIYYPADVAGENVAVSTGTFPVCVFGHGFTMSVDAYENFSDVLVPQGYIILLPSTEDGFSPNHDEFGLDLAFLVDEFQLENTNGTSLFYGAIAPETALMGHSMGGGCSFLAAESNSSVTTLVNFAAAETNTSAIAAAANITIPAVVFSGEVDPVAPPADHQIPMYNALASECKTYISINDGGHCYFANYNFYCTMGEEAMMPGGPPLTREEQQQTTLDFLSIWLDYTLKGNANALTVFNDSLASSPRITYQQDCNLTILDQINPNAEFKVYPNPADQFFILESSREIKHVLIYNSMGSICLERNKRHRIDISELPEGMYVIKAITESGSFTKKIMVLH
- Proxy for plastic degradation (BHET): 0
- Proxy for plastic degradation (PET; pH 8, 30 °C): 0
- Proxy for plastic degradation (PET; pH 8, 60 °C): 0

B12: unnamed (protein)
chain: APAGPYNVGYVIYDFPFVSPDGALQSLTTAVWYPTDAEPTPYTYGDGRATGLVSLDGPVSPAGRPFPLVVFSHGYGGGGTANLFLTKHLASWGFVVASPDYPDPDQMVRIRGGGTNTPILQYLRNALRLARTGLDFPFDDYAFRPAGLRTVIDQMLAQNADDTSALHGAIDPDRIAVAGHSLGTFTALSVAGLDPQWTDPRIRAVLALSGGVFMWPTQDFAQVSVPIMFMYGEREAGQRERIGLADVAALTRAAYDVCQPPKFMLEVKGGTHFTFGQRVYEERRAGGDASLPERQVAVINSYAAAFLRLYLRNDTSAAATLQQTDPMLTLYRHDM
- Proxy for plastic degradation (BHET): 0
- Proxy for plastic degradation (PET; pH 8, 30 °C): 0
- Proxy for plastic degradation (PET; pH 8, 60 °C): 0
